Source: patent US20150037332A1, “TREATMENT OF METASTIC BREAST CANCER” (GENENTECH, INC., priority 2008, published 2015)

How the values were obtained:
[1] = Phase II single-agent Study BO16934 (metastatic breast cancer), serum pharmacokinetics; format: in vivo, human; conditions: for CL, systemic clearance (mean ± SD) / Vc, volume of central compartment (mean ± SD) / Vss, steady-state volume of distribution (mean ± SD) / t1/2 initial, initial distribution half-life (mean ± SD) / t1/2 terminal, terminal half-life (mean ± SD): intravenous infusion, 2-compartment population PK model
Description: (§1) Mean serum Cmin and Cmax for the first two cycles of treatment in ovarian and metastatic breast cancer (MBC) patients are presented in Table 3.
(§2) PK parameters were estimated using a two-compartment model (see Table 4).

[2] = Multi-dose intravenous toxicity and toxicokinetic studies (Studies 00-377-1821 and 01-458-1821), cardiac endpoints; format: in vivo; conditions: 7-week and 26-week intravenous studies, cynomolgus monkeys
Procedure: In a 7-week intravenous toxicity and toxicokinetic study in cynomolgus monkeys with a 4-week recovery period (Study 00-377-1821), telemetry was measured in two animals per sex in the control and high-dose (150 mg/kg/dose) groups to collect electrocardiographic endpoints. At two timepoints before the initiation of treatment, and on Days 1 and 28, telemetered animals had systolic, diastolic, and mean arterial blood pressure, heart rate, PR interval, QRS, QT, and Lead II ECG data recorded. Four 1-minute tracings were collected for each animal from 2 to 22 hours after dosing and interpreted by a board-certified veterinary cardiologist. In addition to the routine serum chemistry parameters evaluated, serum was also analyzed for creatinine kinase isozymes and Troponin T on Study Days 2/3 and 44/45 for all animals. […] Recordings were taken at two timepoints before the initiation of treatment and once during Weeks 4, 16, and 26 on anesthetized animals and were interpreted by a board-certified veterinary cardiologist. In addition to the routine serum chemistry parameters evaluated, serum was also analyzed for Troponin T on Day 1 predose and on Days 114, 184, and 239 (recovery) for all animals.

[3] = Preliminary population PK analysis of Studies TOC2297g, TOC2689g and B016934; format: in vivo, human; conditions: 153 patients, 1458 concentration-timepoints
[4] = Phase Ib combination studies with capecitabine (BO17003) and docetaxel (BO17021), PK; format: in vivo, human
Description: In both studies, the PK parameters for pertuzumab were similar to the PK parameters obtained in single-agent pertuzumab studies.

[5] = Phase II single-agent studies TOC2689g and BO16934 taken together, serum pharmacokinetics; format: in vivo, human
Description: (§3) Population PK modeling of data from Phase Ia and Phase II studies support the continued use of fixed, non-weight-based dosing in female patients.
as §1, §2

[6] = Phase II study with gemcitabine in platinum-resistant ovarian cancer (TOC3258g), PK; format: in vivo, human
[7] = tested on: previously treated HER2-positive metastatic breast cancer; conditions: in combination with trastuzumab; 11 patients enrolled; cited from earlier work
[8] = tested on: incurable, locally advanced, recurrent or metastatic solid tumors; conditions: cited from earlier work
[9] = Clinical trials as of November 2006, torsades de pointes; format: in vivo, human; conditions: pertuzumab-treated patients
[10] = tested on: non-small cell lung cancer (NSCLC) and breast cancer tumors (low and high HER2 expression levels); assay: Nonclinical dose-response xenograft studies; format: in vivo; conditions: nude mice, NSCLC and breast cancer xenografts
[11] = cited from earlier work
[12] = Phase II single-agent Study TOC2689g (ovarian cancer), serum pharmacokinetics; format: in vivo, human; conditions: for CL, systemic clearance (mean ± SD) / Vc, volume of central compartment (mean ± SD) / Vss, steady-state volume of distribution (mean ± SD) / t1/2 initial, initial distribution half-life (mean ± SD) / t1/2 terminal, terminal half-life (mean ± SD): intravenous infusion, 2-compartment population PK model
Description: as §1, §2

[13] = Previous pertuzumab studies, PK summary (two-compartment model); format: in vivo, human
Description: as §3

[14] = two-compartment model, Studies TOC2689g and BO16934
[15] = Phase I, intravenously every 3 weeks
[16] = two-compartment model, typical patient

## pertuzumab: antibody comprising the light and heavy chain amino acid sequences in SEQ ID NOs. 7 and 8; HER dimerization inhibitor binding HER2
[1]; 420 mg (n = 40), Cycle 1
  Cmax, mean peak serum concentration: 202.9 µg/mL
  Cmin, mean (±SD) trough serum concentration: 56.5 (±21.2) μg/mL
[1]; 420 mg (n = 40), Cycle 2
  Cmax, mean peak serum concentration: 181.2 µg/mL
  Cmin, mean (±SD) trough serum concentration: 62.6 (±21.1) μg/mL
[1]; 420 mg (n = 40)
  CL, systemic clearance (mean ± SD): 0.255 ± 0.096 L/day
  Vc, volume of central compartment (mean ± SD): 2.98 ± 0.67 L
  Vss, steady-state volume of distribution (mean ± SD): 5.12 ± 0.98 L
  t1/2 initial, initial distribution half-life (mean ± SD): 32.6 ± 3.12 h
  t1/2 terminal, terminal half-life (mean ± SD): 391 ± 84 h
[1]; 1050 mg (n = 35), Cycle 1
  Cmax, mean peak serum concentration: 425.6 µg/mL
  Cmin, mean (±SD) trough serum concentration: 75.9 (±34.5) μg/mL
[1]; 1050 mg (n = 35), Cycle 2
  Cmax, mean peak serum concentration: 542.9 µg/mL
  Cmin, mean (±SD) trough serum concentration: 136.6 (±53.5) μg/mL
[1]; 1050 mg (n = 35)
  CL, systemic clearance (mean ± SD): 0.225 ± 0.121 L/day
  Vc, volume of central compartment (mean ± SD): 2.95 ± 0.81 L
  Vss, steady-state volume of distribution (mean ± SD): 5.11 ± 1.12 L
  t1/2 initial, initial distribution half-life (mean ± SD): 33.4 ± 3.6 h
  t1/2 terminal, terminal half-life (mean ± SD): 492 ± 194 h
[2]
  ECGs, blood pressures, and heart rates: normal
  cardiac injury caused by treatment, by histopathology: no evidence of cardiac injury
  serum chemistry parameters (Troponin T and creatine kinase isozymes): lack of increases
[3]
  population variability of steady-state trough concentration and exposure with fixed-dosing, body surface area-based dosing, and weight-based dosing: similar
[4]; Phase Ib Studies BO17003 (capecitabine) and BO17021 (docetaxel)
  effect on the PK of capecitabine and docetaxel: does not alter the PK
[4]; in combination with capecitabine or docetaxel
  PK parameters for pertuzumab compared with single-agent pertuzumab studies: similar
[5]; 840 mg loading dose, 420 mg maintenance dose every 3 weeks, by the second treatment cycle
  steady-state serum Cmin: approximately 60 mg/mL
[5]; loading dose 840 mg followed by 420 mg every 3 weeks
  attainment of steady-state Cmin and Cmax: by the second cycle
[5]; [14]
  mean systemic clearance, range over dose groups: 0.225 to 0.285 L/day
  mean volume of distribution of the central compartment, range over dose groups: 2.70 to 3.11 L
[6]; in combination with gemcitabine
  serum concentrations of pertuzumab compared with single-agent Phase II studies: similar
[6]; preliminary PK analysis
  effect on the PK of gemcitabine or its major metabolite, dFdU: does not alter the PK
[7]
  partial response (PR): Two out of the 11
[8]; [15]
  confirmed partial responses: Two
  tumor regression, patients evaluable for response: 3 of 20
[8]; given intravenously every 3 weeks
  tolerability: generally well tolerated
[9]
  association with an increase of TdP: no association noted
[10]
  steady-state trough concentrations at which >80% suppression of tumor growth was achieved: 5 to 25 µg/mL
[10]; steady-state trough concentrations 5-25 μg/mL
  suppression of tumor growth: > 80%
[11]; Phase I patients
  antibodies to pertuzumab: not detected
[11]; doses of 2.0-15 mg/kg
  linearity of pharmacokinetics: linear
[12]; 420 mg (n = 61), Cycle 1
  Cmax, mean peak serum concentration: 231.7 µg/mL
  Cmin, mean (±SD) trough serum concentration: 64.6 (±20.9) μg/mL
[12]; 420 mg (n = 61), Cycle 2
  Cmax, mean peak serum concentration: 237.6 µg/mL
  Cmin, mean (±SD) trough serum concentration: 66.5 (±38.0) μg/mL
[12]; 420 mg (n = 61)
  CL, systemic clearance (mean ± SD): 0.244 ± 0.095 L/day
  Vc, volume of central compartment (mean ± SD): 2.70 ± 0.39 L
  Vss, steady-state volume of distribution (mean ± SD): 4.73 ± 0.78 L
  t1/2 initial, initial distribution half-life (mean ± SD): 32.9 ± 2.88 h
  t1/2 terminal, terminal half-life (mean ± SD): 389 ± 113 h
[12]; 1050 mg (n = 62), Cycle 1
  Cmax, mean peak serum concentration: 390.9 µg/mL
  Cmin, mean (±SD) trough serum concentration: 90.1 (±68.1) μg/mL
[12]; 1050 mg (n = 62), Cycle 2
  Cmax, mean peak serum concentration: 357.2 µg/mL
  Cmin, mean (±SD) trough serum concentration: 94.7 (±47.3) μg/mL
[12]; 1050 mg (n = 62)
  CL, systemic clearance (mean ± SD): 0.285 ± 0.119 L/day
  Vc, volume of central compartment (mean ± SD): 3.11 ± 0.72 L
  Vss, steady-state volume of distribution (mean ± SD): 5.39 ± 1.31 L
  t1/2 initial, initial distribution half-life (mean ± SD): 32.2 ± 2.64 h
  t1/2 terminal, terminal half-life (mean ± SD): 379 ± 125 h
[13]; docetaxel and capecitabine in Phase Ib studies, gemcitabine in a Phase II study
  impact on the PK of co-administered chemotherapeutic agents: no evidence that pertuzumab impacted the PK
[13]; doses from 2.0 to 15.0 mg/kg
  change in clearance with dose: no change in clearance
[13]; [16]
  systemic serum clearance: approximately 0.24 L/day
  terminal half-life: approximately 17 days
